In patent US20230106247A1 (L AND L BIO CO LTD NINGBO CHINA, published 2023):
Where two headings read alike, the source gives them in different places.

Legend:
human Sirpα-V1-his [1] = biological target: T1, human Sirpα-V1-his (human, UniProt P78324 31-373); test: blocking ELISA, competitor CD47-hFc
T1 construct: range 31-373; Bought (Sino Biological 11612-H08H) or expressed in-house; also called hSirpα-V1; hSirpα-V1-his
Experimental: (§1) The recombinant proteins such as human Sirpα-V1-hFc/Sirpα-V1-his were diluted to concentrations of 5 μg/mL or 2 μg/mL respectively with a PBS buffer at pH 7.4, and then added into a 96-well ELISA plate (Corning, CLS3590-100EA) at a volume of 50 μL/well, and placed in an incubator at 37° C. for 2 hours. After the liquid was discarded, the wells were added with a blocking solution of 5% skimmed milk (skimmed milk powder available from Bright Dairy) diluted with PBS at 230 μL/well, and incubated in an incubator at 37° C. for 3 hours, or placed overnight at 4° C. (for 16-18 hours) for blocking. […] The plate was washed for 5 times, added with 50 μL/well of streptavidin-HRP (GenScript, M00091) or anti-his-HRP secondary antibody (GenScript, A00612) diluted at 1:1000, incubated at 37° C. for 1 hour, and then washed with PBST for 5 times. Each well was added with 50 μL of TMB (Surmodic, Cat #: TTMB-1000-01) for color development, and added with 50 μL/well of 1 M H₂SO₄ to stop the reaction. The readings on a microplate reader (MultiskanGO Thermo, Model 51119200) were subjected to data analysis by GraphPad prism 5.

human Sirpα-V1-his [2] = biological target: T1, human Sirpα-V1-his; test: ELISA
human Sirpα-V1-hFc [3] = biological target: T2, human Sirpα-V1-hFc (human, UniProt P78324 31-373); test: blocking ELISA, competitor CD47-his
T2 construct: range 31-373; also called hSirpα (dimer); hSirpα-V1-hFc (dimer); not shown: human IgG1 Fc region at the C-terminus
Experimental: (§2) The antigens PD-1 and Sirpα expressed according to the method of Example 1 were diluted with a PBS buffer at pH7.4 to a concentration of 2 μg/mL, added into a 96-well ELISA plate (Corning, CLS3590-100EA) at a volume of 50 μL/well, and incubated at 37° C. for 2 hours. After the liquid was discarded, the wells were added with a blocking solution of 5% skimmed milk (Sangon Biotech (Shanghai) Co., Ltd., A600669-0250) formulated with PBS at 200 μL/well, and incubated at 37° C. for 3 hours for blocking. […] The plate was washed with PBST for 5 times, added with 50 μL/well of HRP-labeled secondary antibody (GenScript Biotechnology Co., Ltd., M00091) diluted at 1:1000, and incubated at 37° C. for 1 hour. The plated was washed with PBST for 5 times, then added with 50 μl/well of TMB chromogenic substrate (KPL, 52-00-03), incubated at room temperature for 5-10 min, added with 50 μl/well of 1 M H₂SO₄ to stop the reaction, and read by a […] Go microplate reader (ThermoFisher, 51119200) for the absorbance value at 450 nm, and then IC₅₀ was calculated according to the OD value.

human Sirpα-V1-his [4] = biological target: T1, human Sirpα-V1-his; test: ELISA; remark: listed apart in the source
Experimental: The self-expressed human PD-1, Sirpα and the like antigens of the present disclosure were diluted with a PBS buffer at pH7.4 to a concentration of 2 μg/mL according to different assays, and then added into a 96-well ELISA plate (Corning, CLS3590-100EA) at a volume of 50 μL/well, and placed in an incubator at 37° C. for 2 hours. After the liquid was discarded, the wells were added with a blocking solution of 5% skimmed milk (Sangon Biotech (Shanghai) Co., Ltd., A600669-0250) diluted with PBS at 200 μL/well, and incubated in an incubator at 37° C. for 3 hours, or placed overnight at 4° C. (for 16-18 hours) for blocking. The blocking solution was discarded, and the plate was washed with a PBST buffer (pH7.4 PBS containing 0.05% tween-20) for 5 times, then added with 50 μL/well of 5-fold serial dilution of the antibody to be tested in 1% BSA, and incubated at 37° C. for 1 hour. […] The plated was washed with PBST for 5 times, then added with 50 μL/well of TMB chromogenic substrate (KPL, 52-00-03), incubated at room temperature for 5-10 min, added with 50 μL/well of 1 M H₂SO₄ to stop the reaction, and read by a […] Go microplate reader (ThermoFisher, 51119200) for the absorbance value at 450 nm, and then EC₅₀ was calculated according to the OD value.
The aforementioned bispecific antibodies were cloned, expressed and purified according to the cloning, expression and purification methods of Example 1 of the present disclosure.

human Sirpα-V1-his [5] = biological target: T1, human Sirpα-V1-his; test: blocking ELISA, competitor CD47-hFc; remark: listed apart in the source
Experimental: as §2

human Sirpα-V1-hFc [6] = biological target: T2, human Sirpα-V1-hFc; test: blocking ELISA, competitor CD47-his; remark: listed apart in the source
Experimental: as §1

human Sirpα-V2-his = human Sirpα-V2-his (human); test: blocking ELISA, competitor CD47-his
human Sirpα-V2-his (human), sequence (chain, as listed by the source): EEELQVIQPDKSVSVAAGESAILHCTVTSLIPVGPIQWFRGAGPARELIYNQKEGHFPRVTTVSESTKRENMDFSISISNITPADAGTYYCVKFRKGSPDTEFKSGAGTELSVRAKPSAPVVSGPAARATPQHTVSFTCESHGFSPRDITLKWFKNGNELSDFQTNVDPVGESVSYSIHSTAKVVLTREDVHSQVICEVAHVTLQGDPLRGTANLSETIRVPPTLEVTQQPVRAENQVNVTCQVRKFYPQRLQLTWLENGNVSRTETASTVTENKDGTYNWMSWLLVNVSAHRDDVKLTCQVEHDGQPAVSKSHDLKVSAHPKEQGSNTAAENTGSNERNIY
Experimental: Specifically, the recombinant protein of human Sirpα-V2-his was diluted to a concentration of 2 μg/mL with a PBS buffer at pH7.4, then added into a 96-well ELISA plate (Corning, CLS3590-100EA) at a volume of 50 μL/well, and placed in an incubator at 37° C. for 2 hours. After the liquid was discarded, the wells were added with a blocking solution of 5% skimmed milk (skimmed milk powder available from Bright Dairy) diluted with PBS at 230 μL/well, and incubated in an incubator at 37° C. for 3 hours, or placed overnight at 4° C. (for 16-18 hours) for blocking. […] The plate was washed for 5 times, added with 50 μL/well of a streptavidin-HRP secondary antibody (GenScript, M00091) diluted at 1:1000, incubated at 37° C. for 1 hour, and then washed with PBST for 5 times. Each well was added with 50 μL TMB (Surmodic, Cat #TTMB-1000-01) for color development, and added with 50 μL/well of 1 M H₂SO₄ to stop the reaction. The readings on a microplate reader (MultiskanGO Thermo, Model: 51119200) were subjected to data analysis by GraphPad prism 5.

B1: humanized antibody mab14-h16 (antibody, human IgG4 S228P, kappa, V domains shown)
VH: QVQLVQSGAEVKKPGASVKVSCKASGYNFNIYWINWVRQAPGQGLEWIGNIYPSSISTNYNEKFKTRATLTVDKSTSTVYMELSSLRSEDTAVYYCARSEGTYYGGRYEGDWFGYWGQGTLVTVSS
VL: DIQMTQSPSSLSASVGDRVTITCRASQDIRNYLNWYQQKPGKAPKLLIYFTSTLHSGVPSRFSGSGSGTDFTLTISSLQPEDFATYYCQQGNTLPWTFGGGTKVEIKR
notes: hIgG4, κ
IC50 (human Sirpα-V1-his [1]): 10.1 nM | EC50 (human Sirpα-V1-his [2]): 0.087 nM | IC50 (human Sirpα-V1-hFc [3]): 3.88 nM | EC50 (human Sirpα-V1-his [4]): 0.077 nM | IC50 (human Sirpα-V1-his [5]): 6.14 nM | IC50 (human Sirpα-V1-hFc [6]): 4.81 nM | IC50 (human Sirpα-V2-his): 2.39 nM
